# Source: patent publication US20220403025A1
# Target: L1 (DV1-GV4) antigen: soluble heterodimeric γδ TCR in leucine zipper format (TRDV1/TRGV4) (human)
# Assay: SPR (MASS-2), IgG captured via protein G (100 nM for TS8.2), L1 as analyte, steady-state 1:1 fit
# Sequence of L1 (DV1-GV4) antigen: soluble heterodimeric γδ TCR in leucine zipper format (TRDV1/TRGV4) (human) (main, as listed by the source): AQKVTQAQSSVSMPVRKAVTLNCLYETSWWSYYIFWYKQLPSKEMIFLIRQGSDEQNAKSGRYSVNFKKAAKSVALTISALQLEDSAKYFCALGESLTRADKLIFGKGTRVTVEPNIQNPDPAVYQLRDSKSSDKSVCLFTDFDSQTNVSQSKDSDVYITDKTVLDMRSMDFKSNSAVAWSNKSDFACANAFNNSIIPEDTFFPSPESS
substance,measurement,value
"TS8.2 (commercial anti-Vδ1 antibody; Human TCR Vδ1 purified mAb, ThermoFisher TCR1730)",Kd,44 nM
